The values that follow come from paper doi:10.1101/2025.07.07.663466.

The experiment addresses T1, recombinant M. tuberculosis GroEL1 (M. tuberculosis), P9WPE9.
T1 chain: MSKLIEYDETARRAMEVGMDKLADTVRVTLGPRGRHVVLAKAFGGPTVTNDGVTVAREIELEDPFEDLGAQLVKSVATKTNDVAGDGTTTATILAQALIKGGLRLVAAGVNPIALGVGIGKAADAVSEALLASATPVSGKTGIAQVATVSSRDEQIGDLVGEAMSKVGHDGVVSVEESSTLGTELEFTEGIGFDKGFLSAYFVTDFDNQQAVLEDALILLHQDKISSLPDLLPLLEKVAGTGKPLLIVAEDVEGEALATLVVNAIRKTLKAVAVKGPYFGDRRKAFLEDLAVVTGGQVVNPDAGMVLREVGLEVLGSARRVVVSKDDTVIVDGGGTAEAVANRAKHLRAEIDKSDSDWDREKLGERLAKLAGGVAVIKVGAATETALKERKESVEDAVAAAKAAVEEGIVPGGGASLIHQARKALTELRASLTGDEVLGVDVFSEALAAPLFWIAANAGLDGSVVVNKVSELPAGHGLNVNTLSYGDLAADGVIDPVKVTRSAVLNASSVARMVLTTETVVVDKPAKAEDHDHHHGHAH
Nature of the experiment: native gel or EMSA. As to conditions: remark: other sources report otherwise.

B1: recombinant M. tuberculosis GroEL1, P9WPE9 1-539 (natural protein)
chain: T1 chain
Regarding B1, the stoichiometry N worked out at 2.
